Measurements reported in patent US6905854B2, “Mutated penicillin expandase and process for preparing 7-ADCA using the same” (Synmax Biochemical Co., Ltd., priority 2002, dated 2005).

Experiments:
Format in all cases: biochemical
[1] = DAOCS activity assay with cell extracts; conditions: 20 μl cell extract, 7 mM penicillin G, 30° C., 20 minutes
Method: BL21(DE3) transformants were grown overnight in 5 ml of LB medium with 50 μg/ml kanamycin at 30° C. This culture was used to inoculate 100 ml of the same medium and grown at 30° C. for 1 hour. Then 0.1 mM IPTG was added to induce DAOCS indirectly at 30° C. for 4 hours. Cells were harvested, washed with buffer A (50 mM Mops/pH 7.5, 1 mM PMSF, 1 mM DTT, and 0.5 μg/ml leupeptin), lysed by sonication (VCX 750; Sonics & Materials, USA), and centrifuged at 15,000×g for 15 minutes. The supernatant was used as a cell extract.
(§1) For penicillin G, 20 μl of cell extracts was added into a standard 200 μl assay reaction containing 50 mM Mops/pH 7.5, 4 mM ascorbate, 1 mM FeSO4, 4 mM α-ketoglutarate and 7 mM penicillin G, and incubated at 30° C. for 20 minutes. The reaction was stopped by addition of 200 μl of ethanol, followed by a centrifugation at 15,000×g for 5 minutes. The concentration of cephalosporin G in supernatant was analyzed by HPLC with 40 μl injection. The mobile phase was 25 mM potassium phosphate/pH 6.5 with 19% acetonitrile at a flow rate of 1 ml/min. The retention time for cephalosporin G was 8.5 minutes and 12.5 minutes for penicillin G with detection at 215 nm, and the product at 8.5 minutes in DAOCS reaction was confirmed by ESI-LC/MS (positive): [M+H]^+=333. […] The different combinations of the mutated amino acids mentioned above were also constructed by site-directed mutagenesis.

[2] = Kinetic assay of purified DAOCS with penicillin N as main substrate; conditions: for kcat / Km: for penicillin N, 0.5 μg purified DAOCS, 30° C., 10 minutes; for Km: triplicate, Hanes-Woolf Plot
Method: (§2) The cell extract (2 ml) of a candidate mutant was applied onto a HiTrap Q column (5 ml) pre-equilibrated with buffer B (50 mM Mops/pH 7.5, 1 mM DTT, 0.4 mM pefabloc SC, and 0.5 μg/ml leupeptin). Then, the column was washed with 20 ml of buffer B, followed by a further wash with 25 ml of buffer B containing 120 mM NaCl, and DAOCS was eluted off with 20 ml of buffer B containing 150 mM NaCl. The DAOCS containing fractions were pooled (10 ml), concentrated by UF 15 device (NMWL 5K; Millipore), and loaded onto a Hiload Superdex 75 (16/60) column pre-equilibrated with buffer B at a flow rate of 1 ml/min.
(§3) The standard penicillin G assay was followed for kinetic assay, but 20 μg of purified DAOCS was used and the concentration of α-ketoglutarate was reduced to 1 mM. Kinetic parameters were obtained from triplicate experiments by Hanes-Woolf Plot. For assays using penicillin N as a main substrate, a total volume of 240 μl reaction containing 50 mM Hepes/pH 7.5, 0.4 mM ascorbate, 0.1 mM FeSO4, 0.1 mM α-ketoglutarate, 0.1 mM penicillin N and 0.5 μg of purified DAOCS was incubated at 30° C. for 10 minutes, then the same volume of 10 mM EDTA/pH 7.5 was added, and the mixture was subjected to ultrafiltration with UF 0.5 device (NMWL 5000, Millipore). The filtrate was analyzed by HPLC using 25 mM potassium phosphate/pH 6.5 as a mobile phase. The retention time of DAOC and penicillin N was 12 minutes and 13.5 minutes, respectively The results of kinetic parameters are shown in Table 1, wherein the definition and calculation of the parameters are described in Lehninger et al. Principles of Biochemistry, 2nd Ed. Worth Publishers, New York (1993) which is incorporated herein for reference.

[3] = Kinetic assay of purified DAOCS with penicillin G (standard penicillin G assay, HPLC of cephalosporin G); conditions: for penicillin G, 20 μg purified DAOCS, 1 mM α-ketoglutarate, 30° C.; for Km: triplicate, Hanes-Woolf Plot
Method: as §1, §2, §3

[4] = Relative activity of purified combined mutants compared to wild type DAOCS; conditions: 1 mM penicillin G; activity of wild-type DAOCS as 100%
Method: as §1, §3
The relative activities of the mutants are determined according to Chin H. S. et al supra with the activity of wild-type DAOCS as 100% and shown in Table 2. The assay was performed with 1 mM penicillin G, and the other conditions were the same as standard assay.

Molecule | expandase activity on penicillin G compared to parent strain YS16 [1] | kcat [2] | Km [2] | kcat [3] | Km [3] | expansion activity on penicillin N, folds higher than wild-type YS16 ([2]; penicillin N, compared to wild-type YS16) | Relative Activities [4]
YS49: mutated penicillin expandase (DAOCS) with substitution L277K (protein, UniProt P18548 1-311, looked up, variant L277K) Deacetoxycephalosporin C …: MDTTVPTFSLAELQQGLHQDEFRRCLRDKGLFYLTDCGLTDTELKSAKDLVIDFFEHGSEAEKRAVTSPVPTMRRGFTGLESESTAQITNTGSYSDYSMCYSMGTADNLFPSGDFERIWTQYFDRQYTASRAVAREVLRATGTEPDGGVEAFLDCEPLLRFRYFPQVPEHRSAEEQPLRMAPHYDLSMVTLIQQTPCANGFVSLQAEVGGAFTDLPYRPDAVLVFCGAIATLVTGGQVKAPRHHVAAPRRDQIAGSSRTSSVFFLRPNADFTFSVPKARECGFDVSLDGETATFQDWIGGNYVNIRRTSKA | higher expandase activities on penicillin G than the parent strain YS16 | 0.220 ± 0.042 S^−1 | 11 ± 5 µM | 0.0514 ± 0.0008 S^−1 | 720 ± 20 µM |  | 
YS12: mutated penicillin expandase (DAOCS) with substitution N304K (protein, UniProt P18548 1-311, looked up, variant N304K) Deacetoxycephalosporin C …: MDTTVPTFSLAELQQGLHQDEFRRCLRDKGLFYLTDCGLTDTELKSAKDLVIDFFEHGSEAEKRAVTSPVPTMRRGFTGLESESTAQITNTGSYSDYSMCYSMGTADNLFPSGDFERIWTQYFDRQYTASRAVAREVLRATGTEPDGGVEAFLDCEPLLRFRYFPQVPEHRSAEEQPLRMAPHYDLSMVTLIQQTPCANGFVSLQAEVGGAFTDLPYRPDAVLVFCGAIATLVTGGQVKAPRHHVAAPRRDQIAGSSRTSSVFFLRPNADFTFSVPLARECGFDVSLDGETATFQDWIGGNYVKIRRTSKA | higher expandase activities on penicillin G than the parent strain YS16 | 0.366 ± 0.023 S^−1 | 4 ± 1 µM | 0.0564 ± 0.0003 S^−1 | 220 ± 30 µM | 4 folds | 
YS11: mutated penicillin expandase (DAOCS) with substitution I305M (protein, UniProt P18548 1-311, looked up, variant I305M) Deacetoxycephalosporin C …: MDTTVPTFSLAELQQGLHQDEFRRCLRDKGLFYLTDCGLTDTELKSAKDLVIDFFEHGSEAEKRAVTSPVPTMRRGFTGLESESTAQITNTGSYSDYSMCYSMGTADNLFPSGDFERIWTQYFDRQYTASRAVAREVLRATGTEPDGGVEAFLDCEPLLRFRYFPQVPEHRSAEEQPLRMAPHYDLSMVTLIQQTPCANGFVSLQAEVGGAFTDLPYRPDAVLVFCGAIATLVTGGQVKAPRHHVAAPRRDQIAGSSRTSSVFFLRPNADFTFSVPLARECGFDVSLDGETATFQDWIGGNYVNMRRTSKA | higher expandase activities on penicillin G than the parent strain YS16 | 0.310 ± 0.004 S^−1 | 12 ± 1 µM | 0.1452 ± 0.0020 S^−1 | 750 ± 40 µM |  | 
YS8: mutated penicillin expandase (DAOCS) with substitution I305L (protein, UniProt P18548 1-311, looked up, variant I305L) Deacetoxycephalosporin C …: MDTTVPTFSLAELQQGLHQDEFRRCLRDKGLFYLTDCGLTDTELKSAKDLVIDFFEHGSEAEKRAVTSPVPTMRRGFTGLESESTAQITNTGSYSDYSMCYSMGTADNLFPSGDFERIWTQYFDRQYTASRAVAREVLRATGTEPDGGVEAFLDCEPLLRFRYFPQVPEHRSAEEQPLRMAPHYDLSMVTLIQQTPCANGFVSLQAEVGGAFTDLPYRPDAVLVFCGAIATLVTGGQVKAPRHHVAAPRRDQIAGSSRTSSVFFLRPNADFTFSVPLARECGFDVSLDGETATFQDWIGGNYVNLRRTSKA | higher expandase activities on penicillin G than the parent strain YS16 | 0.284 ± 0.030 S^−1 | 6 ± 2 µM | 0.0759 ± 0.0015 S^−1 | 660 ± 70 µM |  | 
YS16: wild-type expandase (DAOCS, cefE gene) from Streptomyces clavuligerus, parent strain (protein, UniProt P18548 1-311, looked up) Deacetoxycephalosporin C …: MDTTVPTFSLAELQQGLHQDEFRRCLRDKGLFYLTDCGLTDTELKSAKDLVIDFFEHGSEAEKRAVTSPVPTMRRGFTGLESESTAQITNTGSYSDYSMCYSMGTADNLFPSGDFERIWTQYFDRQYTASRAVAREVLRATGTEPDGGVEAFLDCEPLLRFRYFPQVPEHRSAEEQPLRMAPHYDLSMVTLIQQTPCANGFVSLQAEVGGAFTDLPYRPDAVLVFCGAIATLVTGGQVKAPRHHVAAPRRDQIAGSSRTSSVFFLRPNADFTFSVPLARECGFDVSLDGETATFQDWIGGNYVNIRRTSKA |  | 0.307 ± 0.038 S^−1 | 14 ± 6 µM | 0.0453 ± 0.0010 S^−1 | 2580 ± 220 µM |  | 100%
